Like-named read-outs stand apart in the source and are kept apart here.
T1: GDF11 (UniProt O95390)
T1 sequence (looked up): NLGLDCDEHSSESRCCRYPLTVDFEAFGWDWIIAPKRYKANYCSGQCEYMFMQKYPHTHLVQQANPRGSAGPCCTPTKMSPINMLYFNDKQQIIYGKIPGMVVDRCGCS

T2: Activin A (UniProt P08476)
T2 sequence (looked up): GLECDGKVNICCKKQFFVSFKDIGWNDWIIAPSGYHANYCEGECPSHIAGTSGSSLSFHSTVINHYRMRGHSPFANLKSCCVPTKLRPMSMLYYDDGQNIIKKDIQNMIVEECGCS


Columns and labels:
Test in all cases: cell-based or functional assay
[1] = target: T1, GDF11
[2] = target: T2, Activin A
[3] = target: T1, GDF11; remark: listed apart in the source
[4] = target: T2, Activin A; remark: listed apart in the source

Binder	IC50 (ng/mL), conditioned media [1]	IC50 (ng/mL), conditioned media [2]	IC50 (ng/mL), conditioned media [3]	IC50 (ng/mL), conditioned media [4]
ActRIIB(20-128)-hFc (Fc fusion, not shown: a dimerising Fc or GST) GRGEAETRECIYYNANWELERTNQSGLERCEGEQDKRLHCYASWRNSSGTIELVKKGCWLDDFNCYDRQECVATEENPQVYFCCCEGNFCNERFTHLPEAGGPEVTYEP	130 ng/mL	158 ng/mL		
ActRIIB(20-131)-hFc (Fc fusion, not shown: a dimerising Fc or GST) GRGEAETRECIYYNANWELERTNQSGLERCEGEQDKRLHCYASWRNSSGTIELVKKGCWLDDFNCYDRQECVATEENPQVYFCCCEGNFCNERFTHLPEAGGPEVTYEPPPT	120 ng/mL	44 ng/mL	183 ng/mL	201 ng/mL
ActRIIB(21-131)-hFc (Fc fusion, not shown: a dimerising Fc or GST) RGEAETRECIYYNANWELERTNQSGLERCEGEQDKRLHCYASWRNSSGTIELVKKGCWLDDFNCYDRQECVATEENPQVYFCCCEGNFCNERFTHLPEAGGPEVTYEPPPT			121 ng/mL	325 ng/mL
ActRIIB(22-131)-hFc (Fc fusion, not shown: a dimerising Fc or GST) GEAETRECIYYNANWELERTNQSGLERCEGEQDKRLHCYASWRNSSGTIELVKKGCWLDDFNCYDRQECVATEENPQVYFCCCEGNFCNERFTHLPEAGGPEVTYEPPPT			71 ng/mL	100 ng/mL
ActRIIB(23-131)-hFc (Fc fusion, not shown: a dimerising Fc or GST) EAETRECIYYNANWELERTNQSGLERCEGEQDKRLHCYASWRNSSGTIELVKKGCWLDDFNCYDRQECVATEENPQVYFCCCEGNFCNERFTHLPEAGGPEVTYEPPPT			60 ng/mL	43 ng/mL
ActRIIB(24-131)-hFc (Fc fusion, not shown: a dimerising Fc or GST) AETRECIYYNANWELERTNQSGLERCEGEQDKRLHCYASWRNSSGTIELVKKGCWLDDFNCYDRQECVATEENPQVYFCCCEGNFCNERFTHLPEAGGPEVTYEPPPT			69 ng/mL	105 ng/mL
ActRIIB(20-132)-hFc (Fc fusion, not shown: a dimerising Fc or GST) GRGEAETRECIYYNANWELERTNQSGLERCEGEQDKRLHCYASWRNSSGTIELVKKGCWLDDFNCYDRQECVATEENPQVYFCCCEGNFCNERFTHLPEAGGPEVTYEPPPTA	87 ng/mL	32 ng/mL		

From US20170204382A1
